Test results published in paper PMC7858594, “Specific inhibition of FGF5-induced cell proliferation by RNA aptamers”.

T1: FGF5 (human, UniProt P12034 21-268)
T1 sequence: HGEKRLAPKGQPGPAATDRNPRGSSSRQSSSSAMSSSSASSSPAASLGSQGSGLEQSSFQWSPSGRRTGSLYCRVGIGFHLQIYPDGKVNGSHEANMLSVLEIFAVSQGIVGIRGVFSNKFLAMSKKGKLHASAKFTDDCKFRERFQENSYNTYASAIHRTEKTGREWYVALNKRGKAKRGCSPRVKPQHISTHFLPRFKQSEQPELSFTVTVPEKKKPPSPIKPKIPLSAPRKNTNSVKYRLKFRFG

T2: FGF6 (human, UniProt P10767 38-208)
T2 sequence: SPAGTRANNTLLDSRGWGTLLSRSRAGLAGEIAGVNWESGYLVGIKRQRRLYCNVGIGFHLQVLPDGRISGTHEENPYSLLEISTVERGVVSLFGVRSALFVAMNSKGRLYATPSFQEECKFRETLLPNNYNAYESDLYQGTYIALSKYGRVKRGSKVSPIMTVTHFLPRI

T3: FGF4 (human, UniProt P08620 31-206)
T3 sequence: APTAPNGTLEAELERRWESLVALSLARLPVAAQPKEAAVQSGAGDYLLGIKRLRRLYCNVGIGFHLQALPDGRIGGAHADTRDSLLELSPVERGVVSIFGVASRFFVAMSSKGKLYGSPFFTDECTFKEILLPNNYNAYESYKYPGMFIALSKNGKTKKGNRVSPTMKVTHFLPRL

B1: F5f1_56 (structured_RNA)
RNA: GGGCGACCUCUCCGUACUGACCUACAGAGCGACAUACUAGUGUAUCCAGAUCGCCC
modifications: 2'-fluoro pyrimidines (all C and U)
B2: F5f3 (structured_RNA)
RNA: GGGCUAGCUGAUCGUACCUAGCGUGAAUCCAACACGCUUGACAUGCAAACUGCAUCCAGAUACUAACAGCUAACACCC
modifications: 2'-fluoro pyrimidines (all C and U)
B3: F5f3_56 (structured_RNA)
RNA: GGGCGACCUAGCGUGAAUCCAACACGCUUGACAUACAAACUGCAUCCAGAUCGCCC
modifications: 2'-fluoro pyrimidines (all C and U)
B4: F5f1 (structured_RNA)
RNA: GGGCUAGCUGAUCGUACCUCUCCGUACUGACCUACAGAGCGACAUACUAGUGUAUCCAGAUACUAACAGCUAACACCC
modifications: 2'-fluoro pyrimidines (all C and U)

Assays:
[1] = molecular target: T1, FGF5; assay: SPR; 4 eq low-MW heparin; SPR (BIAcore X): 20 mM Tris-HCl pH 7.4, 200 mM NaCl, 5 mM MgCl2, 5 mM CaCl2, 0.05% Tween20, 4 eq low-MW heparin; temperature not stated; conditions: protein: commercial; label: none; multi-branched loop (predicted)
[2] = molecular target: FGF1 (human, UniProt P05230 16-155); assay: SPR; 100 nM protein, 4 eq low-MW heparin; SPR (BIAcore X): 20 mM Tris-HCl pH 7.4, 200 mM NaCl, 5 mM MgCl2, 5 mM CaCl2, 0.05% Tween20, 4 eq low-MW heparin; temperature not stated; conditions: protein: commercial; label: none; multi-branched loop (predicted)
Chain of FGF1 (P05230 16-155): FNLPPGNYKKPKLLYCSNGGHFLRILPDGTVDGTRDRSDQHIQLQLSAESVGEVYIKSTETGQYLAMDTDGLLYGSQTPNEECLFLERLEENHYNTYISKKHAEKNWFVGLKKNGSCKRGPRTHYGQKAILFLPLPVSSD

[3] = molecular target: FGF2 (human, UniProt P09038 143-288); assay: as above; conditions: protein: commercial; label: none; multi-branched loop (predicted)
Chain of FGF2 (P09038 143-288): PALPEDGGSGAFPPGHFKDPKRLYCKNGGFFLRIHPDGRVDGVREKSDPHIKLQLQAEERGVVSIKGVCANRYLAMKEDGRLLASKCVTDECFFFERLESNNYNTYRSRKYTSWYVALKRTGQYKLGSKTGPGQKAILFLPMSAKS

[4] = molecular target: FGFR1alpha (IIIc)-Fc chimera (human, UniProt P11362 22-376); assay: as above; conditions: protein: commercial; tags: Fc; chain copies: 2; label: none; multi-branched loop (predicted)
Chain of FGFR1alpha (IIIc)-Fc chimera (P11362 22-376, change not shown): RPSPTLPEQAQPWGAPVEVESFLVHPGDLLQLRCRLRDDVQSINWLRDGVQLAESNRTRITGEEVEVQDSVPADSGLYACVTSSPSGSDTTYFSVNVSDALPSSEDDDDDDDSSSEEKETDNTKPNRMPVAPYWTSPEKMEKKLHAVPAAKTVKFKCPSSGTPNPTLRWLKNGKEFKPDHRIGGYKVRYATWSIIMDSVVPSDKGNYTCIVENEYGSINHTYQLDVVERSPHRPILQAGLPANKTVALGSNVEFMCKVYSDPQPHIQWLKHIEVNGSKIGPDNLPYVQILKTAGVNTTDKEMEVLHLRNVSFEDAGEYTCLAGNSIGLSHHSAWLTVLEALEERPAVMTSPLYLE

[5] = molecular target: T2, FGF6; assay: as above; conditions: protein: commercial; label: none; multi-branched loop (predicted)
[6] = molecular target: T3, FGF4; assay: as above; conditions: protein: commercial; label: none; multi-branched loop (predicted)

| Binder | Kd [1] | binding result [2] | binding result [3] | binding result [4] | binding result [5] | binding result [6] |
| --- | --- | --- | --- | --- | --- | --- |
| B1 | 0.118 ± 0.003 nM |  |  |  |  |  |
| B2 | 0.57 ± 0.02 nM |  |  |  |  |  |
| B3 | 0.92 ± 0.04 nM |  |  |  |  |  |
| B4 | 0.7 ± 0.2 nM | no binding | no binding | no binding | no binding | no binding |
